Results from the Human Domainome abundance scans (Beltran et al. 2025).
± gives the uncertainty stated by the source.

B1: POU domain, class 2, transcription factor 3, residues 186 to 260; numbered along this chain, Q9UKI9 (parent)
chain: SDLEELEKFAKTFKQRRIKLGFTQGDVGLAMGKLYGNDFSQTTISRFEALNLSFKNMCKLKPLLEKWLNDAESSP

Variants of: B1
Assay: abundance fitness (aPCA) (normalised: wild type 0, dead -1); higher = more abundant; growth selection in yeast, the domain comes from the species named
Conditions: Homo sapiens

Variant | abundance fitness
SDLEELEKFAKTFKQRRIKLGFTQGDVGLAMGKLYGNDFSQTTIFRFEALNLSFKNMCKLKPLLEKWLNDAESSP | -0.253 ± 0.054
SDLEELEKFAKTFKQRRIKLGFTQGDVGLAMGKLYGNDFSQTTINRFEALNLSFKNMCKLKPLLEKWLNDAESSP | 0.004 ± 0.05
SDLEELEKFAKTFKQRRIKLSFTQGDVGLAMGKLYGNDFSQTTISRFEALNLSFKNMCKLKPLLEKWLNDAESSP | -0.504 ± 0.28
SDLEELEKFAKTFKQRRIKLQFTQGDVGLAMGKLYGNDFSQTTISRFEALNLSFKNMCKLKPLLEKWLNDAESSP | -0.493 ± 0.39
SDLEELEKFAKTFKQRRIKLGFTQGDVGLAMGKLYGNDFSQTTISRFEALNLSFKNMCKLKPLLESWLNDAESSP | -0.147 ± 0.041
SDLEELEKFAKTFKQRRIKLGATQGDVGLAMGKLYGNDFSQTTISRFEALNLSFKNMCKLKPLLEKWLNDAESSP | 0.146 ± 0.15
SDLEELEKFAKTFKQRRIKLGFTQGDVGLAMGKLYGNDFSQTTISRMEALNLSFKNMCKLKPLLEKWLNDAESSP | -0.279 ± 0.053
SDLEELEKFAKTFKQRRIKLGFTQGDVGLAMGKLYGNDFSQTTISRIEALNLSFKNMCKLKPLLEKWLNDAESSP | -0.433 ± 0.11
SDLEELEKFAKTFKQRRIKLGFTQGDVGLAMGKLYGNDFSQTTISRFEALNLSFKNMCKLKPTLEKWLNDAESSP | -0.059 ± 0.053
SDLEELEKFAKTFKQRRIKLGFTQGDVGLAMGKLYGEDFSQTTISRFEALNLSFKNMCKLKPLLEKWLNDAESSP | 0.003 ± 0.027
SDLEELEKFAKTFKQRRIKLGFTQGDVGLGMGKLYGNDFSQTTISRFEALNLSFKNMCKLKPLLEKWLNDAESSP | -0.288 ± 0.27
SDLEELEKFAKTFKQRRNKLGFTQGDVGLAMGKLYGNDFSQTTISRFEALNLSFKNMCKLKPLLEKWLNDAESSP | -0.146 ± 0.056
SDLEELEKFAKTFKQRRIKLGFTQGDVGLAMGKLYGNDFSQTTISRFEALNLSFKNMCKLKPLLEKGLNDAESSP | -0.804 ± 0.045
SDLEELEKFAKTFKQRRIKLGFTQGDVGLAMGKLYGNDFSQTTISRFCALNLSFKNMCKLKPLLEKWLNDAESSP | -0.871 ± 0.16
SDLEELEKFAKTFKQRRIKLGFTQGDVGLAMGKLYGNDFSQTTISRFGALNLSFKNMCKLKPLLEKWLNDAESSP | -1.04 ± 0.14
SDLEELEKFAKTFKQRRIKLGFTQGDVGLAMGKLYGNDFSQTTISRFEALNLSFKNMCKLKPLLEKWLNDAESSW | -0.183 ± 0.12
SDLEELEKFAKTFKQRRIKLGFTQGDVGLAMGGLYGNDFSQTTISRFEALNLSFKNMCKLKPLLEKWLNDAESSP | 0.141 ± 0.19
SDLEELEKFAKTFKQRRIKLGFTQGDVGLAMGKLYGNDFSQTTISRFEALNLSFKNMCKLKPLLEKWLNDAESRP | -0.038 ± 0.036

Variant | abundance fitness
SDLEELEKFAKTFKQRRIKLGFTQGDVGLAMGKLYGNDFSQTTISRFEALNLSFKNMCKLKPLLEKWLNDAESLP | -0.119 ± 0.042
SDLEELEKFAKTFKQRRIKLGFTQGDVGLAMGKLYGNDFSQTTISRFEALNLSFKNMCKLKPLLEKWLNDAEMSP | -0.088 ± 0.047
SDLEELEKFAKTFKQRRIKLGFTQGDVGLAMGKLYGNDFSQTTISRFEALNLSFKNMCKLKPLLEKWLNDAEGSP | -0.023 ± 0.03
SDLEELEKFAKTFKQRRIKLGFTQGDVGLAMGKLYGNDFSQTTISRFEALNLSFKNMCKLKPLLEKWLNDAELSP | -0.078 ± 0.039
SDLEELEKFAKTFKQRRIKLGFTQGDVGLAMGKLYSNDFSQTTISRFEALNLSFKNMCKLKPLLEKWLNDAESSP | 0.1 ± 0.1
SDLEELEKFAKTFKQRRIKLGFTQGDVGLAMGKLYGNDFSQTTISRFEALNLSFKNMCKLKPLLEKWNNDAESSP | -0.673 ± 0.13
SDLEELEKFAKTFKQRRIKLGFTQGDVGLAMGKLYGNDFSQTTISRFEALNLSFKNMCKLKPLLEKWPNDAESSP | -0.749 ± 0.22
SDLEELEKFAKTFKQRRIKLGFTQGDVGLAMGKLYGNDFSQTTISRFEALNLSFKNMCKLKPLLEKWVNDAESSP | -0.052 ± 0.037
SDLEELEKFAKTFKQRRIKLGFTQGDVGLAMGKLYGNDFSQTTISRFEALNLSFKQMCKLKPLLEKWLNDAESSP | 0.046 ± 0.059
SDLEELEKFAKTFKQRRIKLGFTQGDVGLAMGKLYGNDFSQTTISRFEALNLSFKCMCKLKPLLEKWLNDAESSP | -0.016 ± 0.057
SDLEELEKFAKTFKQRRIKLGFTQGDVGLAMGKLYGNDFSQTTISRFEALNLSFKNMTKLKPLLEKWLNDAESSP | -0.09 ± 0.054
SDLEELEKFAKTFKQRRIKLGFTQGDVGLAMGKLYGNDFSQTTISRFEALNLSFKNMEKLKPLLEKWLNDAESSP | -0.039 ± 0.046
SDLEELEKFAKTFKQRRIKLGFTQGDVGLAMGKLYGNDFSQTTISRFEALNLSFKNRCKLKPLLEKWLNDAESSP | -0.608 ± 0.044
SDLEELEKFAKTFKQRRIKLGFTQGDVGLAMGKLYGNDFSQTTISRFEALNLSFKNWCKLKPLLEKWLNDAESSP | -0.27 ± 0.043
SDLEELEKFAKTFKQRRIKLGFTQGDVGLAMGKLYGNDFSQTTISRFEALNLSFKNHCKLKPLLEKWLNDAESSP | -0.811 ± 0.29
SDLEELEKFAKTFKQRRIKLGFTQGDVGLAMGKLYGNDFSQTTISRFEALNLSFKNMCKLPPLLEKWLNDAESSP | -0.829 ± 0.15
SDLEELEKFAKTFKQRRIKLGFTQGDVGLAMGKLYGNDFSQTTISRFEALNLSFKNMCKLYPLLEKWLNDAESSP | -0.108 ± 0.08
SDLEELEKFAKTFKQRRIKLGFTQGDVGLAMGKLYGNDFSQTTISRFEALNLSFKNMCKLDPLLEKWLNDAESSP | -0.898 ± 0.2
